Source: US10577406B2, “FKBP-L polypeptides and uses in angiogenesis-mediated disorders” (ALMAC DISCOVERY LIMITED, priority 2006, dated 2020)

Columns and labels:
[1] = tested on: bFGF-induced vessels in subcutaneously implanted polyether sponges; assay: mouse sponge assay of angiogenesis in vivo; design: species or system C57 black mice; conditions: for reduction in vessel number versus bFGF alone: day 21
Description: In these experiments, polyether sponges were subcutaneously implanted in C57 black mice and injected on alternate days with 10 ng bovine fibroblast growth factor (bFGF) or 10 ng bFGF+5 μg full length His-tagged recombinant FKBP-L polypeptide (SEQ ID NO: 1). After 14 days of treatment, sponges were harvested, sectioned and stained with heamatoxylin and eosin.
This experiment evalulated the ability of the FKBP-L 24mer to inhibit angiogenesis using the mouse sponge assay. Polyether sponges were subcutaneously implanted in C57 black mice on day 0 and injected on alternate days with (a) 10 ng bFGF control (3 mice) (b) 10 ng bovine fibroblast growth factor (bFGF)+5 μg full-length his-tagged recombinant FKBPL (equivalent to 3.2×10^−6 M in vitro) (3 mice) (c) 10 ng bFGF+0.35 μg FKBPL 24mer (molar equivalent of 5 μg full-length recombinant FKBPL) (3 mice) or (d) 0.11 ng FKBPL 24mer (equivalent to 10^−9 M in vitro) (3 mice).
All mice were sacrificed on day 21. Sponges were removed, fixed and paraffin embedded. Five micron sections were stained with haematoxylin and eosin. Vessels were blindly counted by 3 independent assessors using ×40 magnification in 10 fields per section. The average count per sponge/mouse was then plotted for each assessor.

[2] = tested on: HMEC-1; assay: in vitro migration assay (wound closure / wound scrape), recombinant protein or peptides added to medium; format: cell-based, Human
Description: (§1) The in vitro migration assay used in these studies is a modified version of the method described by Ashton et al (1999). HMEC-1 were plated into individual chambers on a glass slide and grown to 90% confluence overnight. The medium was removed and the monolayer wounded. The monolayer was re-supplemented with fresh medium and the required volume of recombinant full length his-tagged FKBP-L protein (SEQ ID NO: 1) was added to give the required final concentration.
The monolayers were incubated for 7 hours after exposure to recombinant FKBP-L protein and then fixed in 4% PBS buffered paraformaldehyde. The extent of “wound” closure was blindly assessed microscopically by an independent investigator and quantified using a calibrated eyepiece graticule (1 mm/100 μm graduation) at 20× magnification (Olympus BX 50). The extent of closure in the FKBP-L treated slides was compared to time matched sham treated controls and the % inhibition of wound closure compared to time matched controls calculated.
The following studies were performed to determine the effect of a full length His-tagged recombinant FKBP-L protein on the wound closure assay measured as a function of time. Again, the in vitro migration assay used in these studies is a modified version of the method described by Ashton et al (1999). HMEC-1 were plated into individual chambers on a glass slide and grown to 90% confluence overnight. The medium was removed and the monolayer wounded. The monolayer was re-supplemented with fresh medium and the required volume of full length his-tagged recombinant FKBP-L (i.e., SEQ ID NO: 1) added to give the required final concentration 750 ngml^−1.
Slides were removed at fixed time points until complete closure of the wound, then fixed in 4% PBS buffered paraformaldehyde. The extent of “wound” closure was blindly assessed microscopically by an independent investigator and quantified using a calibrated eyepiece graticule (1 mm/100 μm graduation) at 20× magnification (Olympus BX 50). The extent of closure in the FKBP-L treated slides was compared to time matched sham treated controls and the % inhibition of wound closure compared to time matched controls calculated.
as §1, with “al. (1999) see supra.” for “al (1999).”, “the following peptides” for “recombinant full length his-tagged FKBP-L protein (SEQ ID NO: 1)”, “achieve a dose range from 10^−14-10^−6 M.” for “give the required final concentration.”
The monolayers were incubated for 7 h and then fixed in 4% PBS buffered paraformaldehyde. The extent of “wound” closure was blindly assessed microscopically by an independent investigator and quantified using a calibrated eyepiece graticule (1 mm/100 μm graduation) at 20× magnification (Olympus BX 50). The extent of closure in the FKBP-L treated slides was compared to time matched sham treated controls and the % inhibition of wound closure compared to time matched controls calculated.
The in vitro migration assay used in these studies is a modified version of the method described by Ashton et al. (1999) see supra. HMEC-1 were plated into individual chambers on a glass slide and grown to 90% confluence overnight. The medium was removed and the monolayers wounded. The monolayer was re-supplemented with fresh medium and the required volume of each peptide (i.e., peptides 1-17, SEQ ID NOS: 12-28; Table 4 below) was added to give the required final concentration (10^−14-10^−6 M).
The monolayers were incubated for 24 h and then fixed in 4% PBS buffered paraformaldehyde. The extent of “wound” closure was blindly assessed microscopically by an independent investigator and quantified using a calibrated eyepiece graticule (1 mm/100 μm graduation) at 20× magnification (Olympus BX 50). […]

| Molecule | reduction in vessel number versus bFGF alone ([1]; 10 ng bFGF + 0.35 μg on alternate days) [%] | reduction in vessel number versus bFGF alone ([1]; lowest dose (0.11 ng, equivalent to 10^−9 M in vitro) on alternate days) [%] | potency compared with the full length recombinant protein on a mole/mole basis ([2]; wound scrape, 7 h) | reduction in vessel number versus bFGF alone ([1]; 10 ng bFGF + 5 μg on alternate days) [%] | vessel counts versus bFGF alone ([1]; 10 ng bFGF+5 μg on alternate days, 14 days, p=0.0008) | delay of 50% wound closure versus control ([2]; 750 ngml^−1) [h] | time until 50% wound closure ([2]; 750 ngml^−1, single administration, control 7 hours) [h] | inhibition of HMEC-1 migration into the denuded area of the monolayer compared to time matched controls ([2]; 750 ngml^−1, 7 hours) [%] | time until which the wound remained open (total wound closure) ([2]; 750 ngml^−1, control 16 hours) [h] | optimum concentration for inhibition of migration ([2]; 7 hours) [ngml^−1] | dose effective to prevent cell migration ([2]; FIG. 4 dose response) |
| --- | --- | --- | --- | --- | --- | --- | --- | --- | --- | --- | --- |
| H-QIRQQPRDPPTETLELEVSPDPAS-OH [FKBP-L 24mer] | 80 | 70 | increased potency |  |  |  |  |  |  |  |  |
| full length recombinant FKBP-L: recombinant full length his-tagged FKBP-L protein (SEQ ID NO: 1) expressed in BL21 (DE3) (protein, listed as Homo sapiens, His tag) MRGSHHHHHHGMASMTGGQQMGRDLYDDDDKDRWGSMETPPVNTIGEKDTSQPQQEWEKNLRENLDSVIQIRQQPRDPPTETLELEVSPDPASQILEHTQGAEKLVAELEGDSHKSHGSTSQMPEALQASDLWYCPDGSFVKKIVIRGHGLDKPKLGSCCRVLALGFPFGSGPPEGWTELTMGVGPWREETWGELIEKCLESMCQGEEAELQLPGHTGPPVGLTLASFTQGRDSWELETSEKEALAREERARGTELFRAGNPEGAARCYGRALRLLLTLPPPGPPERTVLHANLAACQLLLGQPQLAAQSCDRVLEREPGHLKALYRRGVAQAALGNLEKATADLKKVLAIDPKNRAAQEELGKVVIQGKNQDAGLAQGLRKMFG |  |  |  | 50 | significantly fewer vessels | 9 | 16 | 60 | 34 | 750 | 10^−6 M |
